From the supplement of paper PMC9112550, “Optimization of the antimicrobial peptide Bac7 by deep mutational scanning” (BMC Biology, 2022)

test system: Escherichia coli TOP10; experiment: shrunken log2 fold change of peptide-encoding DNA abundance (4.5 h post-induction vs induction); higher = less antimicrobial activity (less host growth inhibition); conditions: time post-induction: 4.5 h; library: site-saturation at positions 5, 18, 19, 20
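Also: peptides expressed intracellularly from a pBAD plasmid library in pooled LB shake-flask culture, induced with 0.3% L-arabinose, DNA abundance read by NGS, three biological replicates, DESeq2 with apeglm shrinkage.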

Going from RRIRLRPPRLPRPRPRPFSMPRP to RRIRKRPPRLPRPRPRPVNKPRP, the “shrunken log2 fold change” value rises from -0.0455 to 0.22.

First: RRIRARPPRLPRPRPRPAIKPRP
Second: RRIRYRPPRLPRPRPRPDPKPRP
The “shrunken log2 fold change” value of the first is higher: 0.206 for the first, -0.22 for the second.

Compared with RRIRYRPPRLPRPRPRPYIIPRP, RRIRPRPPRLPRPRPRPHNWPRP is higher in “shrunken log2 fold change” value: -0.241 for the first, 0.0255 for the second.

Going from RRIRSRPPRLPRPRPRPQECPRP to RRIRIRPPRLPRPRPRPWMRPRP, the “shrunken log2 fold change” value falls from -0.0587 to -0.37.

RRIRRRPPRLPRPRPRPDKLPRP and RRIRFRPPRLPRPRPRPREIPRP are within 0.2 log units of each other in “shrunken log2 fold change” value: -0.115 for the first, 0.0702 for the second.

Compared with RRIRKRPPRLPRPRPRPTDDPRP, RRIRYRPPRLPRPRPRPDWRPRP is lower in “shrunken log2 fold change” value: 1.01 for the first, 0.22 for the second.

First: RRIRIRPPRLPRPRPRPYYNPRP
Second: RRIRRRPPRLPRPRPRPEKRPRP
The “shrunken log2 fold change” value of the first is lower: -0.679 for the first, 0.296 for the second.

First: RRIRMRPPRLPRPRPRPPGAPRP
Second: RRIRSRPPRLPRPRPRPNHWPRP
The “shrunken log2 fold change” value of the first is higher: 2.06 for the first, -0.277 for the second.

Compared with RRIRFRPPRLPRPRPRPWSCPRP, RRIRSRPPRLPRPRPRPTENPRP is higher in “shrunken log2 fold change” value: -0.175 for the first, 0.148 for the second.

First: RRIRHRPPRLPRPRPRPVHYPRP
Second: RRIRHRPPRLPRPRPRPCDEPRP
The “shrunken log2 fold change” value of the first is lower: -0.495 for the first, -0.0443 for the second.

RRIRMRPPRLPRPRPRPHYSPRP and RRIRNRPPRLPRPRPRPFILPRP are within 0.2 log units of each other in “shrunken log2 fold change” value: -0.624 for the first, -0.634 for the second.

First: RRIRERPPRLPRPRPRPVRMPRP
Second: RRIRVRPPRLPRPRPRPVGCPRP
The “shrunken log2 fold change” value of the first is lower: 0.11 for the first, 0.417 for the second.

RRIRYRPPRLPRPRPRPWNVPRP and RRIRNRPPRLPRPRPRPNAGPRP are within 0.2 log units of each other in “shrunken log2 fold change” value: -0.0218 for the first, -0.0954 for the second.

Compared with RRIRMRPPRLPRPRPRPDCEPRP, RRIRYRPPRLPRPRPRPVSDPRP is lower in “shrunken log2 fold change” value: 2.29 for the first, -0.379 for the second.

RRIRLRPPRLPRPRPRPVFMPRP and RRIRPRPPRLPRPRPRPMIFPRP are within 0.2 log units of each other in “shrunken log2 fold change” value: -0.203 for the first, -0.214 for the second.

RRIRQRPPRLPRPRPRPISAPRP and RRIRWRPPRLPRPRPRPNDCPRP are within 0.2 log units of each other in “shrunken log2 fold change” value: -0.0212 for the first, -0.0115 for the second.

Going from RRIRDRPPRLPRPRPRPHETPRP to RRIRMRPPRLPRPRPRPKQNPRP, the “shrunken log2 fold change” value rises from -0.0736 to 1.16.

RRIRDRPPRLPRPRPRPRNRPRP and RRIRTRPPRLPRPRPRPHSDPRP are within 0.2 log units of each other in “shrunken log2 fold change” value: 0.0378 for the first, -0.00801 for the second.

RRIRPRPPRLPRPRPRPAQGPRP and RRIRSRPPRLPRPRPRPMMNPRP are within 0.2 log units of each other in “shrunken log2 fold change” value: 0.156 for the first, -0.0187 for the second.

Compared with RRIRARPPRLPRPRPRPIEWPRP, RRIRMRPPRLPRPRPRPRAAPRP is higher in “shrunken log2 fold change” value: 0.638 for the first, 3.2 for the second.

RRIRQRPPRLPRPRPRPDTSPRP and RRIRSRPPRLPRPRPRPMDKPRP are within 0.2 log units of each other in “shrunken log2 fold change” value: 0.00601 for the first, 0.0107 for the second.

RRIRMRPPRLPRPRPRPDWMPRP and RRIRWRPPRLPRPRPRPWGDPRP are within 0.2 log units of each other in “shrunken log2 fold change” value: -0.0455 for the first, 0.0345 for the second.

Compared with RRIRNRPPRLPRPRPRPNSFPRP, RRIRVRPPRLPRPRPRPCDMPRP is lower in “shrunken log2 fold change” value: -0.00469 for the first, -0.448 for the second.

Going from RRIRQRPPRLPRPRPRPEMTPRP to RRIRRRPPRLPRPRPRPQVWPRP, the “shrunken log2 fold change” value rises from 0.0231 to 0.409.

First: RRIRMRPPRLPRPRPRPKPCPRP
Second: RRIRTRPPRLPRPRPRPKKDPRP
The “shrunken log2 fold change” value of the first is higher: 0.366 for the first, -0.147 for the second.

RRIRIRPPRLPRPRPRPEFIPRP and RRIRFRPPRLPRPRPRPRRYPRP are within 0.2 log units of each other in “shrunken log2 fold change” value: -0.00702 for the first, -0.0281 for the second.

RRIRWRPPRLPRPRPRPLTNPRP and RRIRVRPPRLPRPRPRPLELPRP are within 0.2 log units of each other in “shrunken log2 fold change” value: -0.114 for the first, -0.103 for the second.

Compared with RRIRCRPPRLPRPRPRPKYFPRP, RRIRTRPPRLPRPRPRPKMEPRP is higher in “shrunken log2 fold change” value: -0.501 for the first, -0.0203 for the second.

RRIRKRPPRLPRPRPRPSLNPRP and RRIRSRPPRLPRPRPRPYEMPRP are within 0.2 log units of each other in “shrunken log2 fold change” value: -0.0764 for the first, -0.234 for the second.

First: RRIRVRPPRLPRPRPRPAGGPRP
Second: RRIRRRPPRLPRPRPRPLRYPRP
The “shrunken log2 fold change” value of the first is higher: 1.15 for the first, 0.463 for the second.

First: RRIRERPPRLPRPRPRPPDDPRP
Second: RRIRHRPPRLPRPRPRPQGHPRP
The “shrunken log2 fold change” value of the first is higher: 0.103 for the first, -0.268 for the second.

Going from RRIRGRPPRLPRPRPRPRDHPRP to RRIRARPPRLPRPRPRPWAWPRP, the “shrunken log2 fold change” value falls from 0.978 to 0.239.

RRIRPRPPRLPRPRPRPHRYPRP and RRIRVRPPRLPRPRPRPFTFPRP are within 0.2 log units of each other in “shrunken log2 fold change” value: -0.136 for the first, -0.0282 for the second.

RRIRLRPPRLPRPRPRPGTTPRP and RRIRERPPRLPRPRPRPRKYPRP are within 0.2 log units of each other in “shrunken log2 fold change” value: -0.221 for the first, -0.201 for the second.

First: RRIRKRPPRLPRPRPRPHYEPRP
Second: RRIRVRPPRLPRPRPRPNFVPRP
The “shrunken log2 fold change” value of the first is higher: -0.0316 for the first, -0.491 for the second.

Compared with RRIRWRPPRLPRPRPRPPNAPRP, RRIRMRPPRLPRPRPRPVECPRP is lower in “shrunken log2 fold change” value: 0.675 for the first, -0.117 for the second.

Compared with RRIRSRPPRLPRPRPRPNLQPRP, RRIRARPPRLPRPRPRPSLFPRP is higher in “shrunken log2 fold change” value: -0.141 for the first, 0.349 for the second.

Compared with RRIRGRPPRLPRPRPRPPIQPRP, RRIRERPPRLPRPRPRPLFTPRP is lower in “shrunken log2 fold change” value: 0.341 for the first, -0.55 for the second.

Going from RRIRSRPPRLPRPRPRPYASPRP to RRIRTRPPRLPRPRPRPAIQPRP, the “shrunken log2 fold change” value falls from 0.0607 to -0.216.

RRIRKRPPRLPRPRPRPFANPRP and RRIRQRPPRLPRPRPRPVWCPRP are within 0.2 log units of each other in “shrunken log2 fold change” value: -0.0377 for the first, 0.0608 for the second.

Going from RRIRQRPPRLPRPRPRPAIFPRP to RRIRMRPPRLPRPRPRPPLCPRP, the “shrunken log2 fold change” value rises from -0.0662 to 1.72.

Compared with RRIRQRPPRLPRPRPRPNMTPRP, RRIRVRPPRLPRPRPRPLPHPRP is higher in “shrunken log2 fold change” value: -0.196 for the first, 0.0915 for the second.

Going from RRIRCRPPRLPRPRPRPWMCPRP to RRIRRRPPRLPRPRPRPFQEPRP, the “shrunken log2 fold change” value rises from -0.851 to -0.264.

RRIRNRPPRLPRPRPRPQFTPRP and RRIRNRPPRLPRPRPRPSLTPRP are within 0.2 log units of each other in “shrunken log2 fold change” value: -0.259 for the first, -0.266 for the second.

RRIRARPPRLPRPRPRPRHDPRP and RRIRGRPPRLPRPRPRPQGVPRP are within 0.2 log units of each other in “shrunken log2 fold change” value: 0.128 for the first, -0.0465 for the second.

With RRIRQRPPRLPRPRPRPIELPRP the “shrunken log2 fold change” value was -0.293.
